Measured values reported in article PMC11267260, “Atom‐Modified gDNA Enhances Cleavage Activity of TtAgo Enabling Ultra‐Sensitive Nucleic Acid Testing”.

Target: T1, TtAgo (Thermus thermophilus Argonaute) (Thermus thermophilus, UniProt Q746M7 1-685)
T1 sequence: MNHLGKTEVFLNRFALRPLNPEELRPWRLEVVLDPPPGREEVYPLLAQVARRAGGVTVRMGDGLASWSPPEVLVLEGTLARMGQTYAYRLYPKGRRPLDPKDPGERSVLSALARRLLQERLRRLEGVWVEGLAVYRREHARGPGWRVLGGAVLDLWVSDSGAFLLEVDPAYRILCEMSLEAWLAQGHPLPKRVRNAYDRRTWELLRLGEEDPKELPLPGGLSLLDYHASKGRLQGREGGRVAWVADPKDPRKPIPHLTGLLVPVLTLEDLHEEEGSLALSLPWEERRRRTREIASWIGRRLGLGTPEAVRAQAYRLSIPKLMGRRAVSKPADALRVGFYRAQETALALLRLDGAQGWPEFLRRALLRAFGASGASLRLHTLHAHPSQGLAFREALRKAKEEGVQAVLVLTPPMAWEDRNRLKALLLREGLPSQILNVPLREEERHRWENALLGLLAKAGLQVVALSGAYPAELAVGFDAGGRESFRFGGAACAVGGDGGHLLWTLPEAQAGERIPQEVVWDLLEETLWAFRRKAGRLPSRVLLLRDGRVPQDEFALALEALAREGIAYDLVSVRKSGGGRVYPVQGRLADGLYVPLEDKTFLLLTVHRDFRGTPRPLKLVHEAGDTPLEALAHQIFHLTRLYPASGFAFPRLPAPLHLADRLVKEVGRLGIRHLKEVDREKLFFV
Assay: EMSA; ternary complex; higher than with C-gDNA; BLI in 1x reaction buffer (composition, pH and temperature not given in the material); EMSA conditions not given
Conditions: protein: recombinant; tags: Ni-column purified; dialyzed with TEV protease (tag not described); guide 1-18 pairs with target 12-29; target overhangs 11 nt 5', 1 nt 3'

B1: F1-gDNA + target (mixed)
DNA 1: CATGCATCGATCAGCTAC
DNA 2: CTGCAGTCGTCGTAGCTGATCGATGCATGC
modifications: 2'-F on C18 of guide
binding result: binds
